Measured values taken from article PMC12748766, “Structural basis for human chondroitin sulfate chain polymerization” (Nature Communications, 2025).

Legend:
Assay in all cases: mass photometry; Refeyn OneMP; purified complexes diluted in 20 mM MES pH 6.5, 150 mM NaCl to around 25 nM
Conditions in all cases: both partners purified
[1] = molecular target: T1, Chondroitin Sulfate Synthase-3 (CHSY3), secreted N-terminally truncated construct aa157-aa882 (human, UniProt Q70JA7 157-882)
T1 construct: CHSY3, human, UniProt Q70JA7, residues 157-882 (membrane-spanning helix removed); Construct in pHR-CMV-TetO2 with an N-terminal chicken RPTP sigma signal peptide, SUMO, 6x His and a 3C site; no cleavage site before the C-terminal Avi tag; source: Freestyle 293-F cells, co-transfected, secreted; purified from the supernatant (HisTrap, 3C protease, second HisTrap); not shown: SUMO, N-terminal, …
T1 sequence (looked up): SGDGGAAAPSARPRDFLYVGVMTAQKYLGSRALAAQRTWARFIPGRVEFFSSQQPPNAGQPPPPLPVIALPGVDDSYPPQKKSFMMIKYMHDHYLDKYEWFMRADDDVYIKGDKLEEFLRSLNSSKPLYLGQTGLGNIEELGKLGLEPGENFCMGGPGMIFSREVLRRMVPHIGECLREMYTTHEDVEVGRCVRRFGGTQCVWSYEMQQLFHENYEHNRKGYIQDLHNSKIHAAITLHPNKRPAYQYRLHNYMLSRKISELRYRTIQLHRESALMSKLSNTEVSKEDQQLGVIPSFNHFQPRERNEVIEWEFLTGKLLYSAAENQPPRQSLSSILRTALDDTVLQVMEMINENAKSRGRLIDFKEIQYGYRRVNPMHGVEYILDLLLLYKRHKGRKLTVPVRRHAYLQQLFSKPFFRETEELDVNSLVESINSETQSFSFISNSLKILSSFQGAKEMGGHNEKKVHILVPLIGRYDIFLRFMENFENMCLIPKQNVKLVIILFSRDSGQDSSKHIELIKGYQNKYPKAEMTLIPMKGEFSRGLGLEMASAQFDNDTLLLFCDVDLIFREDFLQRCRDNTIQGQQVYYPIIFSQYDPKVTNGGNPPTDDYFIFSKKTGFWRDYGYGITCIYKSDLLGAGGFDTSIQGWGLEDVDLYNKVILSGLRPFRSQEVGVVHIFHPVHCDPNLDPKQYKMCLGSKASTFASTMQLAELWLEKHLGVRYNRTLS

[2] = molecular target: T2, CHSY3^D261N/D263N, secreted construct aa157-aa882 (human, UniProt Q70JA7 157-882, D261N | D263N)
T2 construct: CHSY3, human, UniProt Q70JA7, residues 157-882, mutations in the DxD motif of the N-terminal GT domain; source: Freestyle 293-F cells, co-transfected with CHPF, secreted; purified by the same protocol as the wild-type complexes; not shown: SUMO, N-terminal, cleaved; His6, N-terminal, cleaved
T2 sequence (looked up): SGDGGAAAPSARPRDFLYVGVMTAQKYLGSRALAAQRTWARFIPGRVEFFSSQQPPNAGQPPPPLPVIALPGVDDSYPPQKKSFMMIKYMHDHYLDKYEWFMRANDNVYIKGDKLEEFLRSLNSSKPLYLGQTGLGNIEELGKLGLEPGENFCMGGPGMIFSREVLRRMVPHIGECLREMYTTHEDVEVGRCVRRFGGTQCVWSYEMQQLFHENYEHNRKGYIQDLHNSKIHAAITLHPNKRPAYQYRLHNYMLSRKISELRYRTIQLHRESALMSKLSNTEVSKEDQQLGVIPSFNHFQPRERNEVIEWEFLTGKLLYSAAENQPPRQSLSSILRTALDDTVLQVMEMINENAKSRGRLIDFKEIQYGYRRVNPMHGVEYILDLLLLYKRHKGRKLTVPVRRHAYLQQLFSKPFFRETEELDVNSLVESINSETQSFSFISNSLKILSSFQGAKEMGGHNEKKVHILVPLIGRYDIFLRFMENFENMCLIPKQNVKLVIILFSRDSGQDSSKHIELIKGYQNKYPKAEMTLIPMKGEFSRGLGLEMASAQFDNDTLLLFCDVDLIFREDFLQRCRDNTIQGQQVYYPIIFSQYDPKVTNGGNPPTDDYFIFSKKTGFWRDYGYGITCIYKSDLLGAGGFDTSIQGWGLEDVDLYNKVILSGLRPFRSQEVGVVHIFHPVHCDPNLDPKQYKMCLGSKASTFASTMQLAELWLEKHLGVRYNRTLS

[3] = molecular target: T3, CHSY3^D718N/D720N, secreted construct aa157-aa882 (human, UniProt Q70JA7 157-882, D718N | D720N)
T3 construct: CHSY3, human, UniProt Q70JA7, residues 157-882, mutations in the DxD motif of the C-terminal GT domain; source: Freestyle 293-F cells, co-transfected with CHPF, secreted; purified by the same protocol as the wild-type complexes; not shown: SUMO, N-terminal, cleaved; His6, N-terminal, cleaved
T3 sequence (looked up): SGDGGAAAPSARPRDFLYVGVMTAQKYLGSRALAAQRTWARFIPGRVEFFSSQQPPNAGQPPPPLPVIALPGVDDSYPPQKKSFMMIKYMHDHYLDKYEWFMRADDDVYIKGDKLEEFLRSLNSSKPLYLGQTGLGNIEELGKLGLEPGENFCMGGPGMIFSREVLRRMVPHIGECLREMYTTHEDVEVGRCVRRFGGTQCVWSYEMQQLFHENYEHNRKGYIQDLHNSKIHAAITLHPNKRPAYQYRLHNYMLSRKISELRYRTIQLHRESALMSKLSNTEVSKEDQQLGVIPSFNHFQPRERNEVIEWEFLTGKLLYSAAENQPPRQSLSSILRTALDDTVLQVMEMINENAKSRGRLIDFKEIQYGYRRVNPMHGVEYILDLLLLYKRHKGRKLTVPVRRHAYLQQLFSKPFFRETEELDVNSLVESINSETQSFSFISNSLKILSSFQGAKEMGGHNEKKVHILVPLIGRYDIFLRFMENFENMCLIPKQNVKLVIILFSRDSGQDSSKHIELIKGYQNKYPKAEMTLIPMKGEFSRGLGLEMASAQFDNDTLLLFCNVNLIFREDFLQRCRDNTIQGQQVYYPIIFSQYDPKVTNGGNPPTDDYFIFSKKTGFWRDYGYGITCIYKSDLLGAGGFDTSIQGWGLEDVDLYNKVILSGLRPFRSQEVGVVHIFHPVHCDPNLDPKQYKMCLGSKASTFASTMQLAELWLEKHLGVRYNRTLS

binding result [1]: binds
binding result [2]: binds
binding result [3]: binds
B1: Chondroitin Polymerizing Factor (CHPF), secreted N-terminally truncated construct aa81-aa775 (domain or fragment, human, UniProt Q8IZ52 81-775, looked up)
chain: GENWEPRVLPYHPAQPGQAAKKAVRTRYISTELGIRQRLLVAVLTSQTTLPTLGVAVNRTLGHRLERVVFLTGARGRRAPPGMAVVTLGEERPIGHLHLALRHLLEQHGDDFDWFFLVPDTTYTEAHGLARLTGHLSLASAAHLYLGRPQDFIGGEPTPGRYCHGGFGVLLSRMLLQQLRPHLEGCRNDIVSARPDEWLGRCILDATGVGCTGDHEGVHYSHLELSPGEPVQEGDPHFRSALTAHPVRDPVHMYQLHKAFARAELERTYQEIQELQWEIQNTSHLAVDGDQAAAWPVGIPAPSRPASRFEVLRWDYFTEQHAFSCADGSPRCPLRGADRADVADVLGTALEELNRRYHPALRLQKQQLVNGYRRFDPARGMEYTLDLQLEALTPQGGRRPLTRRVQLLRPLSRVEILPVPYVTEASRLTVLLPLAAAERDLAPGFLEAFATAALEPGDAAAALTLLLLYEPRQAQRVAHADVFAPVKAHVAELERRFPGARVPWLSVQTAAPSPLRLMDLLSKKHPLDTLFLLAGPDTVLTPDFLNRCRMHAISGWQAFFPMHFQAFHPAVAPPQGPGPPELGRDTGRFDRQAASEACFYNSDYVAARGRLAAASEQEEELLESLDVYELFLHFSSLHVLRAVEPALLQRYRAQTCSARLSEDLYHRCLQSVLEGLGSRTQLAMLLFEQEQGNST
notes: CHPF, human, UniProt Q8IZ52, residues 81-775 (membrane-spanning helix removed); Construct in pHR-CMV-TetO2 with an N-terminal chicken RPTP sigma signal peptide, SUMO, 6x His and a 3C site; a second 3C site stands before the C-terminal twin streptavidin tag; also called Chondroitin sulfate synthase 2; source: Freestyle 293-F cells, co-transfected, secreted; purified from the supernatant (HisTrap, …)
